Patent US20150266977A1 (AbbVie / Abbott, published 2015)
Where two headings read alike, the source gives them in different places.

T1: recombinant human sclerostin (human, UniProt Q9BQB4 24-213)
T1 construct: biotinylated in the ELISAs; also called hu sclerostin; hu scl
T1 sequence: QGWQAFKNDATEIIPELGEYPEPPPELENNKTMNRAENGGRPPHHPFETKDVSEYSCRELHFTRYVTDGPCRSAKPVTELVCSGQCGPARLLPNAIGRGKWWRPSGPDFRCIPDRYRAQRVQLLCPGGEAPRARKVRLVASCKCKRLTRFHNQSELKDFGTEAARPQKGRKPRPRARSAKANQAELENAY

T2: recombinant mouse sclerostin (mouse, UniProt Q99P68 24-211)
T2 construct: also called ms sclerostin; murine sclerostin
T2 sequence (looked up): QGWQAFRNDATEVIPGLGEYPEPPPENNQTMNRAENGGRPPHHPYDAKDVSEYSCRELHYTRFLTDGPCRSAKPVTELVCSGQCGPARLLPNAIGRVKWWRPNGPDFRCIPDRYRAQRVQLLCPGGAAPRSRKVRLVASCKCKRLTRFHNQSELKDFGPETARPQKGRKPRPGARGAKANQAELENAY

T3: recombinant rat sclerostin (rat, UniProt Q99P67 24-213, limits assumed)
T3 sequence (looked up): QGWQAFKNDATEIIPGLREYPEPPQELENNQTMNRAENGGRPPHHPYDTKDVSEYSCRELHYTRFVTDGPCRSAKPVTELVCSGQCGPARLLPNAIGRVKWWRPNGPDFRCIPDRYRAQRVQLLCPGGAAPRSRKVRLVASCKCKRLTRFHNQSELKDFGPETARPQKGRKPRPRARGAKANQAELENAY


Columns and labels:
[1] = molecular target: T1, recombinant human sclerostin; experiment: capture ELISA, biotin-sclerostin
[2] = molecular target: T2, recombinant mouse sclerostin; experiment: SPR
[3] = molecular target: T3, recombinant rat sclerostin; experiment: SPR
[4] = molecular target: T1, recombinant human sclerostin; experiment: SPR
Description: (§1) Approximately 10,000 RU (or 3000 RU when CM3 chip was used) of goat anti-mouse or anti-human IgG (Fcγ) fragment specific polyclonal antibody (Pierce Biotechnology Inc, Rockford, Ill.) diluted in 10 mM sodium acetate (pH 4.5) was directly immobilized across a CM5 (or CM3) research grade biosensor chip using a standard amine coupling kit according to manufacturer's instructions and procedures at 15 μg/ml. Unreacted moieties on the biosensor surface were blocked with ethanolamine. Modified carboxymethyl dextran surface in flowcells 2, 3 and 4 were used as a reaction surface. Modified carboxymethyl dextran in flow cell 1 was used as the reference surface. Biaevaluation T100 software version 2.0.2, GE Healthcare Life Sciences was used to simultaneously fit association and dissociation phases of all injections (using 1:1 fit analysis with local Rmax). Purified antibodies were diluted in running buffer for capture across goat anti-mouse or anti-human IgG specific reaction surfaces. Antibodies to be captured as a ligand (1 μg/ml) were injected over reaction matrices at a flow rate of 10 μl/minute. The association and dissociation rate constants, kon (unit M-1 s-1) and koff (unit s-1) were determined under a continuous flow rate of 50 μl/minute. […] At the end of each cycle the surfaces were regenerated with 10 s injection of 50 mM NaOH or/and by 10 s injection of 10 mM Glycine pH1.5 at a flow rate of 100 μl/min. Instrument appropriate Biaevaluation software, GE Healthcare Life Sciences was used to simultaneously fit association and dissociation constants as well as KD (using 1:1 global fit analysis with local Rₘₐₓ). Binding was recorded as a function of time and kinetic rate constants are calculated. In this assay, on-rates as fast as 10⁷ M⁻¹ s⁻¹ and off-rates as slow as 10⁻⁶ s⁻¹ can be measured.

[5] = molecular target: T4, recombinant cynomolgus monkey sclerostin (cynomolgus monkey); experiment: SPR
T4 construct: also called cyno sclerostin; Cyno sclerostin
Description: as §1

[6] = molecular target: T1, recombinant human sclerostin; experiment: SPR; remark: listed apart in the source
Description: as §1, with “The binding of antibodies or anti-sclerostin-TNF DVD to purified recombinant human, cynomolgus monkey (cyno), rat and mouse sclerostin and TNFα was determined by surface plasmon resonance-based measurements with a Biacore T100 or T200 instruments (GE Healthcare Life Sciences, Piscataway, N.J., USA) using running HBS-EP+ (10 mM HEPES [pH 7.4], 150 mM NaCl, 3 mM EDTA, and 0.005% surfactant P20) containing additional 150 mM NaCl, and/or 10 mg/ml carboxymethyl dextran, 0.1 mg/ml BSA at 25° C. All chemicals were obtained from GE Healthcare Life Sciences, Piscataway, N.J., USA or otherwise from a different source as described in the text. Approximately” for “Approximately”, “μl/min.” for “μl/min. Instrument appropriate Biaevaluation software, GE Healthcare Life Sciences was used to simultaneously fit association and dissociation constants as well as KD (using 1:1 global fit analysis with local Rₘₐₓ). Binding was recorded as a function of time and kinetic rate constants are calculated. In this assay, on-rates as fast as 10⁷ M⁻¹ s⁻¹ and off-rates as slow as 10⁻⁶ s⁻¹ can be measured.”

[7] = molecular target: T4, recombinant cynomolgus monkey sclerostin; experiment: SPR; remark: listed apart in the source
Description: as §1, with “The binding of antibodies or anti-sclerostin-TNF DVD to purified recombinant human, cynomolgus monkey (cyno), rat and mouse sclerostin and TNFα was determined by surface plasmon resonance-based measurements with a Biacore T100 or T200 instruments (GE Healthcare Life Sciences, Piscataway, N.J., USA) using running HBS-EP+ (10 mM HEPES [pH 7.4], 150 mM NaCl, 3 mM EDTA, and 0.005% surfactant P20) containing additional 150 mM NaCl, and/or 10 mg/ml carboxymethyl dextran, 0.1 mg/ml BSA at 25° C. All chemicals were obtained from GE Healthcare Life Sciences, Piscataway, N.J., USA or otherwise from a different source as described in the text. Approximately” for “Approximately”, “μl/min.” for “μl/min. Instrument appropriate Biaevaluation software, GE Healthcare Life Sciences was used to simultaneously fit association and dissociation constants as well as KD (using 1:1 global fit analysis with local Rₘₐₓ). Binding was recorded as a function of time and kinetic rate constants are calculated. In this assay, on-rates as fast as 10⁷ M⁻¹ s⁻¹ and off-rates as slow as 10⁻⁶ s⁻¹ can be measured.”

recombinant human TNF-α [8] = molecular target: T5, recombinant human TNF-α (human, UniProt P01375 77-233); experiment: SPR
T5 construct: also called huTNF; Human TNFa
Description: as §1, with “The binding of antibodies or anti-sclerostin-TNF DVD to purified recombinant human, cynomolgus monkey (cyno), rat and mouse sclerostin and TNFα was determined by surface plasmon resonance-based measurements with a Biacore T100 or T200 instruments (GE Healthcare Life Sciences, Piscataway, N.J., USA) using running HBS-EP+ (10 mM HEPES [pH 7.4], 150 mM NaCl, 3 mM EDTA, and 0.005% surfactant P20) containing additional 150 mM NaCl, and/or 10 mg/ml carboxymethyl dextran, 0.1 mg/ml BSA at 25° C. All chemicals were obtained from GE Healthcare Life Sciences, Piscataway, N.J., USA or otherwise from a different source as described in the text. Approximately” for “Approximately”, “μl/min.” for “μl/min. Instrument appropriate Biaevaluation software, GE Healthcare Life Sciences was used to simultaneously fit association and dissociation constants as well as KD (using 1:1 global fit analysis with local Rₘₐₓ). Binding was recorded as a function of time and kinetic rate constants are calculated. In this assay, on-rates as fast as 10⁷ M⁻¹ s⁻¹ and off-rates as slow as 10⁻⁶ s⁻¹ can be measured.”

recombinant human TNF-α [9] = molecular target: T5, recombinant human TNF-α; experiment: cell-based or functional assay
Rhesus/cynoTNFa = Rhesus/cynoTNFa (Rhesus/cyno); experiment: cell-based or functional assay
Chain of Rhesus/cynoTNFa (Rhesus/cyno) (P48094 whole entry): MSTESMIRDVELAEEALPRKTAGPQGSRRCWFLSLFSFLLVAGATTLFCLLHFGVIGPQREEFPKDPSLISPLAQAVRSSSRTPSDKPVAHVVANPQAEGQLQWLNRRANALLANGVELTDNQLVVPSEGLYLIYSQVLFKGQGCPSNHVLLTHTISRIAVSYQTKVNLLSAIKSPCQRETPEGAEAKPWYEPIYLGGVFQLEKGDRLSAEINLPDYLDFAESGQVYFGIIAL

T5 sequence (P01375 77-233 limits assumed): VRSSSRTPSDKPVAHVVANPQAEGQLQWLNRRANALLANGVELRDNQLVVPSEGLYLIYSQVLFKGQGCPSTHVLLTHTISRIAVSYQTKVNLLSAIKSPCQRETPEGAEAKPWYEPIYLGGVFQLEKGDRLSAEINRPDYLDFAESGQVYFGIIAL

Binder	EC50 [1] [nM]	binding result [2]	binding result [3]	Kd [4] [nM]	koff [4] [s⁻¹]	kon [4] [M⁻¹ s⁻¹]	Kd [5] [nM]	koff [5] [s⁻¹]	kon [5] [M⁻¹ s⁻¹]	also measured
MSL9-8 (antibody, V domains shown, fully human mAb) VH: EVQLVESGGGLVQPGGSLRLSCAASGFRFTDYWMTWVRQAPGKGPEWVANINEDGSKKHYADSVKDRFIISRDNAKKSLSLQMKRMRAEDTAVYYCAADLNPHWLVGWGQGTLVTVSS VL: QPVLTQPPSVSVAPGKTARITCGGNNIGSRRVHWYQQKPGQAPVLVVYDDNDRPSGIPERFSGSKSGNTATLTISRVEAGDEADYYCQVWHSGRVFGTGTKVTVLG	12.3	–	–	–	–	–	–	–	–	–
MSL10 (antibody, V domains shown, fully human mAb) VH: EVQLVESGGGLVQPGGSLRLSCTASGFTFDDYALHWVRQAPGKGLEWVSGISWHGDFIDYADSVKGRFTISRDNSKNTLYLQMNGLRVEDMAIYYCAGNNRGYGGLDVWGQGTTVTVSS VL: not shown	0.427	–	–	–	–	–	–	–	–	–
MSL10-AM5 (antibody, V domains shown) VH: EVQLVESGGGLVQPGRSLRLSCAASGFTFDDYALHWVRQAPGKGLEWVSGISWHGDFIDYADSVKGRFTISRDNAKNSLYLQMNSLRVEDTALYYCAGNNRGYGGLDVWGQGTTVTVSS VL: not shown	–	no binding	no binding	0.97	7.4e-05	77000	1.1	8.7e-05	82000	–
MSL10-AM2.2 (antibody, V domains shown) VH: EVQLVESGGGLVQPGRSLRLSCAASGFTFDDYALHWVRQAPGKGLEWVSGIGWEDDMIDYADSVKGRFTISRDNAKNSLYLQMNSLRVEDTALYYCAGNSRGYGGLDVWGQGTTVTVSS VL: not shown	–	no binding	no binding	0.33	0.00011	340000	0.11	6.7e-05	600000	–
MSL10-AM3.2 (antibody, V domains shown) VH: EVQLVESGGGLVQPGRSLRLSCAASGFTFDDYALHWVRQAPGKGLEWVSGIGWDEDMIDYADSVKGRFTISRDNAKNSLYLQMNSLRVEDTALYYCAGNNRGYGGLDVWGQGTTVTVSS VL: not shown	–	no binding	no binding	0.9	0.00025	280000	0.36	0.0001	300000	–
MSL17 (antibody, V domains shown, fully human mAb) VH: EVQLLESGGGLVKPGRSLRLSCVAYGFSLTGYSMNWVRQAPGKGLEWVSSISPNDTYRHYADSVKGRFTISRDNAKNSLYLQMNSLRAEDTAVYYCARDTNYRDSGGYFYDVFDIWGQGTMVTVSS VL: SYELTQPPSVSVAPGETARVTCEGNNIGNKGVHWYQQKPGQAPVLVVYDDSDRPSGIPERFSGSNSGNTATLTISRVEAGDDADYYCQVWDSSSDVFGSGTKVTVLG	0.778	–	–	–	–	–	–	–	–	–
MAK199-1-GS-AE10-6 AM7 QL (bispecific antibody, human IgG1, lambda, L234A L235A, DVD-Ig with CH QL) heavy: EVQLVQSGAEVKKPGASVKVSCKASGYTFANYGIIWVRQAPGQGLEWMGWINTYTGKPTYAQKFQGRVTMTTDTSTSTAYMELSSLRSEDTAVYYCARKLFTTMDVTDNAMDYWGQGTTVTVSSGGGGSGGGGSEVQLVQSGAEVKKPGASVKVSCKVSGYTLTELSMHWVRQAPGKGLEWMGGFDPEDGETIYAQKFQGRVTMTEDTSTDTAYMELSSLRSEDTAVYYCATDTVGYWEKFFQHWGQGTLVTVSSASTKGPSVFPLAPSSKSTSGGTAALGCLVKDYFPEPVTVSWNSGALTSGVHTFPAVLQSSGLYSLSSVVTVPSSSLGTQTYICNVNHKPSNTKVDKKVEPKSCDKTHTCPPCPAPEAAGGPSVFLFPPKPKDQLMISRTPEVTCVVVDVSHEDPEVKFNWYVDGVEVHNAKTKPREEQYNSTYRVVSVLTVLHQDWLNGKEYKCKVSNKALPAPIEKTISKAKGQPREPQVYTLPPSREEMTKNQVSLTCLVKGFYPSDIAVEWESNGQPENNYKTTPPVLDSDGSFFLYSKLTVDKSRWQQGNVFSCSVLHEALHNHYTQKSLSLSPGK light: DIQMTQSPSSLSASVGDRVTITCRASQDISQYLNWYQQKPGKAPKLLIYYTSRLQSGVPSRFSGSGSGTDFTLTISSLQPEDFATYFCQQGNTWPPTFGQGTKLEIKRGGSGGGGSGQAVVTQEPSLTVSPGGTVTLTCGSSTGTVTIDHYPYWFQQKPGQAPRTLISDTDDKHSWTPARFSGSLLGGKAALTLSGAQPEDEAEYYCLLDYGGRFVFGGGTKLTVLGQPKAAPSVTLFPPSSEELQANKATLVCLISDFYPGAVTVAWKADSSPVKAGVETTTPSKQSNNKYAASSYLSLTPEQWKSHRSYSCQVTHEGSTVEKTVAPTECS	–	–	–	–	–	–	–	–	–	Kd [6]: < 0.00016 nM; koff [6]: < 1e-06 s⁻¹; kon [6]: 6.1e+06 M⁻¹ s⁻¹; Kd [7]: < 0.0001 nM; koff [7]: < 1e-06 s⁻¹; kon [7]: 9.9e+06 M⁻¹ s⁻¹; Kd (recombinant human TNF-α [8]): 0.007 nM; koff (recombinant human TNF-α [8]): 3e-05 s⁻¹; kon (recombinant human TNF-α [8]): 4.2e+06 M⁻¹ s⁻¹; L929 TNF neutralization IC50 with 50 nM SOST (recombinant human TNF-α [9]): 0.032 nM; L929 TNF neutralization IC50 without 50 nM SOST (recombinant human TNF-α [9]): 0.033 nM
AE10-6 AM7-GS-MAK195-21 (bispecific antibody, human IgG1, kappa, L234A L235A, DVD-Ig: outer AE10-6 AM7, inner MAK195-21) heavy: not shown light: QAVVTQEPSLTVSPGGTVTLTCGSSTGTVTIDHYPYWFQQKPGQAPRTLISDTDDKHSWTPARFSGSLLGGKAALTLSGAQPEDEAEYYCLLDYGGRFVFGGGTKLTVLGGGSGGGGSGDIQMTQSPSSLSASVGDRVTITCRASQLVSSAVAWYQQKPGKAPKLLIYWASARHTGVPSRFSGSGSGTDFTLTISSLQPEDFATYYCQQHYKTPFTFGQGTKLEIKRTVAAPSVFIFPPSDEQLKSGTASVVCLLNNFYPREAKVQWKVDNALQSGNSQESVTEQDSKDSTYSLSSTLTLSKADYEKHKVYACEVTHQGLSSPVTKSFNRGEC	–	–	–	–	–	–	–	–	–	Kd [6]: < 0.00015 nM; koff [6]: < 1e-06 s⁻¹; kon [6]: 6.8e+06 M⁻¹ s⁻¹; L929 TNF neutralization IC50 (Rhesus/cynoTNFa): > 2 nM
